According to the supplement of paper PMC12764529:
± gives the half width of the 95% confidence interval.

How the values were obtained:
[1] = folding stability dG unfold from trypsin proteolysis; higher = more stable
Outline: (§1)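 Mini-proteins designed to be under 80 residues and free of cysteine were carried in a PA-tagged cDNA display construct and digested with trypsin and with chymotrypsin. Each protease was applied at 11 threefold-diluted concentrations, alongside a no-protease condition, before sequencing. K50 came from Bayesian fitting of the sequencing counts, and unfolding free energy was obtained by comparing it with a sequence-predicted unfolded-state K50 and a shared folded-state K50, for each protease separately or for both together. Designs were retained only if their AlphaFold2 dimer inter-PAE exceeded 15.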

[2] = folding stability dG unfold from chymotrypsin proteolysis; higher = more stable
Outline: as §1

[3] = folding stability dG unfold (combined trypsin and chymotrypsin); higher = more stable
Outline: as §1

Sequence	folding stability dG unfold [1]	folding stability dG unfold [2]	folding stability dG unfold [3]
SAGKNEVLKVDIEYDPETGIIRLKTTYPNGLKEEKLIFKIPGTGKWYTAWNSEYEEGKEYQDFGILPESAGG [r19_394_TrMRF]	1.98 ± 0.15 kcal/mol	2.35 ± 0.05 kcal/mol	2.02 ± 0.12 kcal/mol
SAGKPIDLGEVEVEISPVSYDPETGKLTYQARLVTKDGKPIYTASVTYDPKTGKFSISVTPIGYDPSAFSAG [r5_200_TrMRF]	2.26 ± 0.057 kcal/mol	1.99 ± 0.12 kcal/mol	2.2 ± 0.14 kcal/mol
SAGKPKIIEEKTITVPPGATLTIEFPPEVKRIEIINLDTGKTETIEIKPGEKLTFTFPPGSTVRVRVLSAGG [r19_118_TrROS_Hall]	2.38 ± 0.029 kcal/mol	4.06 ± 0.046 kcal/mol	3.65 ± 0.09 kcal/mol
SAGKPKVIFIEGMTKEQLRAAIDEAKKKLKPGDIIVVRSKEAADALKELLPDLTVYLVDEETKEVKKLPSAG [r5_391_TrROS_Hall]	1.91 ± 0.14 kcal/mol	2.1 ± 0.067 kcal/mol	2.08 ± 0.14 kcal/mol
SAGKPLTPDEAKELAEELVDAFAEEFARRHGMPPDDMKVIEVEETPDGYIQVTFRMPNMPMKFEIPVKDSAG [r5_565_TrROS]	0.435 ± 0.057 kcal/mol	0.277 ± 0.11 kcal/mol	0.366 ± 0.1 kcal/mol
SAGKPPPVKIEVNYRRTPDNSYRAEVQIRLPDGKPLFEVTYPFDNPDDPEARERFVRKARNLAKELANSAGG [r19_13_TrROS]	1.9 ± 0.14 kcal/mol	1.8 ± 0.19 kcal/mol	2.14 ± 0.5 kcal/mol
SAGKSIKIPYIIRFPSPNGEPHLMRIKEVTINPKPGMVKIKFQMPGKKQTHTVPPNNIEILPDPEEILKSAG [r5_15_TrROS]	0.116 ± 0.22 kcal/mol	-0.0282 ± 0.33 kcal/mol	-0.0216 ± 0.29 kcal/mol
SAGKTATFTFTLPLPENDLILRVTVRVEEVEDIGEKKVYRVNVEIDLIDKDGVPHRFSFSFLVPAEELFSAG [r14_916_TrMRF]	3.39 ± 0.15 kcal/mol	5.14 ± 0.11 kcal/mol	4.83 ± 0.16 kcal/mol
SAGKTIVIKAKTAEEAINALLKELKKKGEKVKITVTVYDKNGKEVYRVTIEIDPKEKGKIKIKVEKVPSAGG [r19_85_TrROS_Hall]	2.19 ± 0.22 kcal/mol	3.65 ± 0.2 kcal/mol	3.33 ± 0.44 kcal/mol
SAGKVEIKEVSVDPNTDEVKVTFKNPNVPPGTKIVVYPKDGKPIEFETEPNKEVTLTLPKDVEKIEFEGSAG [r14_671_TrMRF]	-0.298 ± 0.13 kcal/mol	0.381 ± 0.14 kcal/mol	0.0919 ± 0.15 kcal/mol
SAGKVKATYDPKTGTLTITFNVKKNEKINVKANIKIPEYNATVEKVETNGAKKDNEPVTVKIKLKNLKKSAG [r5_737_TrMRF]	1.06 ± 0.076 kcal/mol	2.75 ± 0.12 kcal/mol	1.94 ± 0.54 kcal/mol
SAGKVKIEVEEVPPNVKKVKVESLEELLEAAKKLPPGAVVEVELEDGSKVTVVLNKDGKVVEVKKEPVPSAG [r5_506_TrROS_Hall]	2.61 ± 0.35 kcal/mol	0.9 ± 0.16 kcal/mol	1.58 ± 0.27 kcal/mol
SAGKVKIVKIDKGKNKITIEFYDDGKKIATIPFPPNFPNTKVIAEVNEDGSIKVTFISGDKPIEITIDASAG [r5_533_TrMRF]	2.57 ± 0.16 kcal/mol	2.64 ± 0.1 kcal/mol	2.59 ± 0.12 kcal/mol
SAGKVKVEKLEDGTVIVEAEIKDPETDEYIKIFDLVTFNPETGYALVPRLVIKGDKPFTFPVLVKLPKSAGG [r19_289_TrMRF]	0.0636 ± 0.067 kcal/mol	0.931 ± 0.11 kcal/mol	0.671 ± 0.12 kcal/mol
SAGKVTVERDPSTNVVNVTVEVERERDVPPGAPVTETIIIPARVKFDEDGKLVEPISLDDILAAIRAAGSAG [r5_239_TrMRF]	0.221 ± 0.12 kcal/mol	0.684 ± 0.095 kcal/mol	0.629 ± 0.21 kcal/mol
SAGKYIMHPIKAGAEIKITIPPEGYRIKIGMYYPNGGKMEEHEVPIKPGKTLEFKIPDPNFFVMIEPEPSAG [r5_797_TrROS]	0.984 ± 0.1 kcal/mol	1.57 ± 0.25 kcal/mol	1.3 ± 0.26 kcal/mol
SAGLAAAIAAAGAIAEALGVTVRVEVFRDGELVGTFEIPAPVGDGEPVSLEVRLPDPEVTVRFELRIPGSAG [r14_728_TrMRF]	2.26 ± 0.14 kcal/mol	2.51 ± 0.037 kcal/mol	2.5 ± 0.11 kcal/mol
SAGLDEEAYRNGLTVYLTSRLPGPDVLRPQWFDVTPEGDGFTYNVALPDGVPVNLEVLSRKVLSPEELLSAG [r14_427_JUSTAS]	-0.489 ± 0.51 kcal/mol	0.149 ± 0.32 kcal/mol	0.0205 ± 0.19 kcal/mol

Sequence	folding stability dG unfold [1]	folding stability dG unfold [2]	folding stability dG unfold [3]
SAGLEVVKKLAEELGFPVEILRVEYDPETGELTFEAVARPKDGKTRRVRIRIRVPKESDEVEIELEYFDSAG [r5_929_TrMRF]	4.67 ± 0.11 kcal/mol	3.95 ± 0.082 kcal/mol	4.51 ± 0.1 kcal/mol
SAGLGLEKAKKLAEKIAETLKKELEKELGIPADQIKVEAKVEKLPDGSYKITVKINLKDIPIEKVFYVDSAG [r14_226_TrMRF]	3.5 ± 0.52 kcal/mol	2.9 ± 0.069 kcal/mol	2.87 ± 0.31 kcal/mol
SAGLKVEIFPMDGTEQTIPIPAEDADPLVDEFQDNGFKVDNVEVDPDGEVWIPIKFPNGRPWMIEIDWESAG [r5_645_TrROS]	-0.0958 ± 0.093 kcal/mol	-0.0946 ± 0.31 kcal/mol	0.0616 ± 0.29 kcal/mol
SAGLRVVAVARTPDGSLVVVYELPDRLVVLRYTPTAITSVAVFPVPPVPPPPAVPRYYDPVTGRWVDGSAGG [r19_254_TrMRF]	1.71 ± 0.029 kcal/mol	3.641 ± 0.026 kcal/mol	3.02 ± 0.061 kcal/mol
SAGMAVVKITLEYEDGRKEEFILFVESENPEEVLEEAEEALAELIEELDVPLKSATIEIYDIPPDEELSAGG [r19_335_TrMRF]	2.12 ± 0.11 kcal/mol	3.39 ± 0.09 kcal/mol	3 ± 0.1 kcal/mol
SAGMEEEEVVLKIRVKDPETGEEKTFEVKLKDIEKVEVDEDGNIRIYLKEDGKEITIPADKITEVELLSAGG [r19_416_TrROS_Hall]	3.15 ± 0.11 kcal/mol	3.86 ± 0.059 kcal/mol	3.71 ± 0.089 kcal/mol
SAGMEELAEELAKELEGEGLKVEVEVDPETGVVTVTAYSPESVTVVTITQDPNNDAFTVNTTTYPPLLSAGG [r19_2_JUSTAS]	3.07 ± 0.083 kcal/mol	2.95 ± 0.061 kcal/mol	3.02 ± 0.059 kcal/mol
SAGMEIKYTITVSLSSGQTLGTKTITDPGKSIEEIVKEFAKIPGLTLITVTVTNPDGTPTTVTIPVNPSAGG [r19_269_JUSTAS]	2.24 ± 0.059 kcal/mol	3.072 ± 0.022 kcal/mol	2.79 ± 0.051 kcal/mol
SAGMEITTVTLPDGTKLITITLPVPGGPSITADVPYDPATGKVTLLKITGEDPALEALAKEAVEKLKKESAG [r5_266_JUSTAS]	0.68 ± 0.032 kcal/mol	1.17 ± 0.053 kcal/mol	1.09 ± 0.11 kcal/mol
SAGMEITVPGPFLSQEVFDLPDRPYLVLPTPEGIAVIDLVTGEAVFYPFGTTEPIVVPVPPGEELDLLSAGG [r19_138_TrMRF]	1.73 ± 0.091 kcal/mol	1.97 ± 0.042 kcal/mol	1.83 ± 0.088 kcal/mol
SAGMEKVKLTFKTEDGSEVEIEIVKNEDGSYFVKVKVDKENQEIYVFNADGELIEKIKVKSLEDALKALSAG [r5_757_TrROS_Hall]	1.69 ± 0.063 kcal/mol	3.19 ± 0.052 kcal/mol	2.73 ± 0.12 kcal/mol
SAGMEPTTITVDVTIPPEVFARLSEEELKEKVLAELGIPESLPVEVEISRKEVKLDGKTVYVVPMTIVGSAG [r14_334_JUSTAS]	0.117 ± 0.085 kcal/mol	0.652 ± 0.11 kcal/mol	0.407 ± 0.089 kcal/mol
SAGMEPVSIKITKIEKTPENKDYVIVTVTPPDGVPTEIKVPIEFYKSGKLKNATAEELVKLFPEYKLESAGG [r19_74_JUSTAS]	1.13 ± 0.065 kcal/mol	2.68 ± 0.045 kcal/mol	2.28 ± 0.12 kcal/mol
SAGMETVKIKVRVKVTVRERLPDGTVKTREFELTLEIEVEVEPGQTAEELAKKLAEEFNIEEVEIEKVPSAG [r5_994_TrROS_Hall]	2.57 ± 0.19 kcal/mol	3.83 ± 0.58 kcal/mol	3.29 ± 0.38 kcal/mol
SAGMEVEWEIGDADEDGYVRLTVKAVLLIPETGKPVVVEAEIKMPIEELENEEVLKELARKVVEEAEAESAG [r5_964_TrMRF]	1.4 ± 0.037 kcal/mol	2.1 ± 0.032 kcal/mol	1.85 ± 0.086 kcal/mol
SAGMEVKVETVTIEIEVDGKKIEIKVVRVEVRNEDGSIYEFTFIEITVPEDVSEEELRKLLEELGLEPESAG [r5_486_TrROS_Hall]	2.64 ± 0.12 kcal/mol	4.1 ± 0.31 kcal/mol	3.77 ± 0.29 kcal/mol
SAGMFVKIKFKTADKTVEELVKKIKEETGIPENAKITVIAEKSEDEGFVVIIEFDEEEVRDKIKEIVGSAGG [r19_215_TrMRF]	1.52 ± 0.026 kcal/mol	1.35 ± 0.062 kcal/mol	1.45 ± 0.087 kcal/mol
SAGMGATLVSESEEEIDSSGVRKLTYRSPGSLLVETLYPDGTVPVYVIDPSTGKVVEERVFHVPPDVPLSAG [r14_676_JUSTAS]	0.179 ± 0.13 kcal/mol	0.166 ± 0.17 kcal/mol	0.204 ± 0.13 kcal/mol
